Results as given in patent US20030199671A1 (published 2003).
Starred links: 1 amine or outer side, 2 acyl side, 3 side chain; linkers in the order of their positions; H or OH if unused. Primed or numbered codes have the meaning given here. code X(3) = -NH-(CH2CH2O)2-CH2CH2- (from -X-NH2 = -NH-(CH2CH2O)2-CH2CH2-NH2), C(COCCOCC[*:2])N[*:1]; code Z = not defined here; Su = not defined here

B1: DX1072 (peptide)
peptide: Ac-GDNPMCWRAHWWEDAYCINHEPGPEGGGK-NH2
modifications: not fully specified (bridges); printed as Ac-GDNPMCWRAHWWEDAYCINHEPGPEGGGK-NH2; cysteine pairing not given here
notes: Derivative of DX596 (Lys-Lys to Arg-Ala and adjacent Ser to His); immobilised
B2: DX1071 (peptide)
peptide: Ac-GDNPMCWRASWWEDAYCINHEPGPEGGGK-NH2
modifications: not fully specified (bridges); printed as Ac-GDNPMCWRASWWEDAYCINHEPGPEGGGK-NH2; cysteine pairing not given here
notes: Derivative of DX596 (two internal lysines replaced by arginine and alanine); immobilised
B3: DX413 (peptide)
peptide: Ac-AGYWYCWFPDRPECPLYPGPEGGGK-NH2
modifications: not fully specified (bridges); printed as Ac-AGYWYCWFPDRPECPLYPGPEGGGK-NH2; cysteine pairing not given here
B4: DX907 (peptide)
peptide: Ac-GDDHMCVYTTWGELIWCDNH-{code X(3)-NH2}
modifications: not fully specified (bridges); printed as Ac-GDDHMCVYTTWGELIWCDNH-X-NH2; cysteine pairing not given here
notes: DX249 derivative; immobilised
B5: DX911 (peptide)
peptide: Ac-GDDHMCVYTTWGELIWCDNH-{code X(3)-code Z-code X(3)-NH2}
modifications: not fully specified (bridges); printed as Ac-GDDHMCVYTTWGELIWCDNH-X-Z-X-NH2; cysteine pairing not given here; reading uncertain
notes: DX249 derivative; immobilised
B6: DX253 (peptide)
peptide: Ac-GDRRACSRDWSGALVWCAGHEPGPEGGGK-NH2
modifications: not fully specified (bridges); printed as Ac-GDRRACSRDWSGALVWCAGHEPGPEGGGK-NH2; cysteine pairing not given here
notes: immobilised on Sepharose in batch/column assays
B7: DX389 (peptide)
peptide: Ac-AGPHNCDDHYWYCKWFPGPEGGGK-NH2
modifications: not fully specified (bridges); printed as Ac-AGPHNCDDHYWYCKWFPGPEGGGK-NH2; cysteine pairing not given here
notes: immobilised in batch assays
B8: DX392 (peptide)
peptide: Ac-AGSYWCKIWDVCPQSPGPEGGGK-NH2
modifications: not fully specified (bridges); printed as Ac-AGSYWCKIWDVCPQSPGPEGGGK-NH2; cysteine pairing not given here
notes: immobilised in batch assays
B9: DX909 (peptide)
peptide: Ac-GDDHMCVYTTWGELIWCDNH-{code X(3)-Su-code X(3)-NH2}
modifications: not fully specified (bridges); printed as Ac-GDDHMCVYTTWGELIWCDNH-X-Su-X-NH2; cysteine pairing not given here; reading uncertain
notes: DX249 derivative; immobilised
B10: DX597 (peptide)
peptide: Ac-GDSWNCAFHHNEMVWCDDGGTPGPEGGGK-NH2
modifications: not fully specified (bridges); printed as Ac-GDSWNCAFHHNEMVWCDDGGTPGPEGGGK-NH2; cysteine pairing not given here
notes: Immobilised on Sepharose
B11: DX1070 (peptide)
peptide: Ac-GDWGECTVTSYGELIWCGGLEPGPEGGGK-NH2
modifications: not fully specified (bridges); printed as Ac-GDWGECTVTSYGELIWCGGLEPGPEGGGK-NH2; cysteine pairing not given here
notes: Immobilised on Sepharose
B12: DX398 (peptide)
peptide: Ac-AGAATCSTSYWYYQWFCTDSPGPEGGGK-NH2
modifications: not fully specified (bridges); printed as Ac-AGAATCSTSYWYYQWFCTDSPGPEGGGK-NH2; cysteine pairing not given here
notes: immobilised in batch assays

Assays:
human IgG4 [1] = molecular target: T1, human IgG4 (human, UniProt P01861-1 1-327 = IgG part); assay: batch binding, immobilised ligand
T1 construct: Calbiochem; plasma IgG4 in anisotropy studies, myeloma-derived (cat. 400126) in batch/column studies; also called hIgG4
Procedure: (§1) IgG targets were diluted into 10 mM phosphate buffer containing 150 mM NaCl and 0.01% Tween 20, pH 7.2 (PBST) or 50 mM Tris buffer containing, 150 mM NaCl and 0.01% Tween-20, pH 7.5 (TBST). Batch (static) binding and elution studies were conducted in a 96-well assay filterplate (Millipore MultiScreen-HV, with 0.45 μm Durapore membrane, product no. MAHVN4510). The target was allowed to incubate with the resin for 1-1.5 hours with shaking at room temperature. Unbound target was collected by centrifugation of samples from the assay plate directly into a low-UV absorbing 96-well collection plate (Costar, product no. 3635 or Greiner, product no. 655801). The unbound target was then quantitated by reading the absorbance at 280 nm (normalized to 1 cm pathlength, 1.4 mg/ml A280 extinction coefficient) of the collection plate on a microplate spectrophotometer (Molecular Devices Corp., SPECTRAmax PLUS) against a buffer blank.
(§2) The percentage bound target was determined by subtracting the mass determined as unbound from the corresponding condition's control values (control non-filtered added directly to the collection plate and/or the negative control). The assay plate was washed (3×) with 200 μl of binding buffer by vacuum filtration followed by addition of 100 μl of various elution conditions (e.g.: 0.1 M sodium bicarbonate buffer, pH 8.5 and/or 0.1 M sodium citrate buffer, pH 4.0). After a 30-60 minute incubation with shaking at room temperature, the eluted target was collected by centrifugation of the assay plate into another collection plate and quantitated in a similar manner. Percent elution of total load was then determined to characterize elution recovery efficiency under various conditions.

human IgG1 [2] = molecular target: T2, human IgG1 (human, UniProt P01857-1 1-330 = IgG part); assay: batch binding, immobilised ligand
T2 construct: Calbiochem; human plasma IgG1 in anisotropy studies, myeloma-derived (cat. 400120) in batch/column studies; also called hIgG1
Procedure: as §1, §2

human IgG3 [3] = molecular target: T3, human IgG3 (human, UniProt P01860-1 1-377); assay: batch binding, immobilised ligand
T3 construct: Calbiochem; plasma IgG3 in anisotropy studies, myeloma-derived (cat. 400124) in batch/column studies; also called hIgG3
Procedure: as §1, §2

human IgG2 [4] = molecular target: T4, human IgG2 (human, UniProt P01859-1 1-326 = IgG part); assay: batch binding, immobilised ligand
T4 construct: Calbiochem; plasma IgG2 in anisotropy studies, myeloma-derived (cat. 400122) in batch/column studies; also called hIgG2
Procedure: as §1, §2

human IgG1 [5] = molecular target: T2, human IgG1; assay: anisotropy; pH 4.0 - salt
human IgG2 [6] = molecular target: T4, human IgG2; assay: anisotropy; pH 4.0 - salt
human IgG1 [7] = molecular target: T2, human IgG1; assay: anisotropy; pH 7.5 - salt
human IgG2 [8] = molecular target: T4, human IgG2; assay: anisotropy; pH 7.5 - salt
human IgG1 [9] = molecular target: T2, human IgG1; assay: anisotropy; pH 4.0 + salt
human IgG2 [10] = molecular target: T4, human IgG2; assay: anisotropy; pH 4.0 + salt
human IgG3 [11] = molecular target: T3, human IgG3; assay: anisotropy; pH 4.0 - salt
human IgG3 [12] = molecular target: T3, human IgG3; assay: anisotropy; pH 4.0 + salt
[13] = molecular target: T5, human IgG (unfractionated, polyclonal); assay: filterplate; 25 mg human IgG applied per ml resin
T5 construct: also called hIgG; polyclonal human IgG
Procedure: After incubation of the samples, with shaking, at room temperature for one hour, the supernatant liquid from each well, containing unbound IgG, was collected by centrifugation into the cognate well of a collection plate. The assay plate was washed three times with PBST (200 μl/wash) and bound IgG was eluted from the media samples by incubation for 30-60 minutes at room temperature in 100 μl Elution Buffer (100 mM CAPS, pH 11.5). Eluates were collected by centrifugation for analysis. Protein concentrations were determined from A₂₈₀ measurements and plotted as a function of mg human IgG bound per ml resin vs. mg human IgG applied per ml resin.
These were subsequently tested in batch filterplate format for relative static capacity, human IgG subtype and species specificity as previously described. In addition, total dynamic capacities were determined for comparison. […] The static capacity (mg IgG bound per ml resin) was measured at the 2.5 mg/ml target concentration (25 mg human IgG applied per ml resin).

human IgG4 [14] = molecular target: T1, human IgG4; assay: mini-column chromatography, immobilised ligand
Procedure: (§3) Thus, 250 μg of target (hIgG1, hIgG2, hIgG3, hIgG4, goat IgG and bovine IgG) at 0.250 mg/ml in PBST, pH 7.2 or TBST, pH 7.3 was loaded onto a 350 μl column (3×50 mm) run at 0.200 ml/min. flowrate (170 cm/hr). Flowthrough, elution and cleaning fractions were collected and assayed for total protein recovery by size-exclusion HPLC.

human IgG1 [15] = molecular target: T2, human IgG1; assay: mini-column chromatography, immobilised ligand
Procedure: as §3

human IgG2 [16] = molecular target: T4, human IgG2; assay: mini-column chromatography, immobilised ligand
Procedure: as §3

human IgG4 [17] = molecular target: T1, human IgG4; assay: anisotropy; pH 4.0 - salt
human IgG4 [18] = molecular target: T1, human IgG4; assay: anisotropy; pH 7.5 - salt
human IgG3 [19] = molecular target: T3, human IgG3; assay: anisotropy; pH 7.5 + salt
human IgG3 [20] = molecular target: T3, human IgG3; assay: anisotropy; pH 9.5 + salt

T3 sequence (P01860 other isoform, or with tags, fused parts or gaps): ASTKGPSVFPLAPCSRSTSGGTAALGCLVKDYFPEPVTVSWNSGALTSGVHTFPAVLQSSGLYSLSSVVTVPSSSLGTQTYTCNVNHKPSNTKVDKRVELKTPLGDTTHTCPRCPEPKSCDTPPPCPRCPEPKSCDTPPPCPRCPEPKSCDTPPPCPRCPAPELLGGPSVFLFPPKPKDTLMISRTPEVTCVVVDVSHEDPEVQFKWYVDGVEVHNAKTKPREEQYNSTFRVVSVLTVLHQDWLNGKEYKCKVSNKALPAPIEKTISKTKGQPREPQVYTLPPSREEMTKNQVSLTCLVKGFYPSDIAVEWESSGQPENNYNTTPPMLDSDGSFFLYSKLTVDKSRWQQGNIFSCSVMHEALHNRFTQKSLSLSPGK
T1 sequence (P01861 other isoform, or with tags, fused parts or gaps): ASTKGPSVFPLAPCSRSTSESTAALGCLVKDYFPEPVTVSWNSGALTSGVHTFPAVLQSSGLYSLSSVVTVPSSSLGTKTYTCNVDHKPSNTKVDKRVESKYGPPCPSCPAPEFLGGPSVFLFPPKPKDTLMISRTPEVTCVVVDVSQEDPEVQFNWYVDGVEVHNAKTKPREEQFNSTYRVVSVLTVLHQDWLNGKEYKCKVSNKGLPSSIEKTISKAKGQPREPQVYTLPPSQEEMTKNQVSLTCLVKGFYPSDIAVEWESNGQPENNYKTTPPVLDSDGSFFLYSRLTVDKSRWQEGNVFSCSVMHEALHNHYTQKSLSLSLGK
T4 sequence (P01859 other isoform, or with tags, fused parts or gaps): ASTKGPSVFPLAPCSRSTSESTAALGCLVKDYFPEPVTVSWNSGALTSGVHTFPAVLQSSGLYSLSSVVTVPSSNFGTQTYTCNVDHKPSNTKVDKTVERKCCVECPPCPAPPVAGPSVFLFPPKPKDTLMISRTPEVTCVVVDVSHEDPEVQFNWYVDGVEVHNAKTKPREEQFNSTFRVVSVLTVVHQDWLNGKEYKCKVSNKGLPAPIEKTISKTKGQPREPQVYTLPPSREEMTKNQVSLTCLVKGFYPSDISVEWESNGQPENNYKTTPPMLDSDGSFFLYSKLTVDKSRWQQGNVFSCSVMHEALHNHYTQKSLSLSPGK
T2 sequence (P01857 other isoform, or with tags, fused parts or gaps): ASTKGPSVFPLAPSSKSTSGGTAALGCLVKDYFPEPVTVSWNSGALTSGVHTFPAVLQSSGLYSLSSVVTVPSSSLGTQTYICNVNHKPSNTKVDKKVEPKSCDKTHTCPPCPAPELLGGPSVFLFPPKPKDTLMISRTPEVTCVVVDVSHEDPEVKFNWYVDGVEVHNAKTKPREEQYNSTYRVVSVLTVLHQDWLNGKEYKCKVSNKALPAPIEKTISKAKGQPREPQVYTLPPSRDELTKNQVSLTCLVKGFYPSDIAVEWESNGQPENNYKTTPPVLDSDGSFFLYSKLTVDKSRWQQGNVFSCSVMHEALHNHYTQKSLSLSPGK

| Binder | Bound (% of Total Load) (human IgG4 [1]) [%] | Bound (% of Total Load) (human IgG1 [2]) [%] | Bound (% of Total Load) (human IgG3 [3]) [%] | Bound (% of Total Load) (human IgG2 [4]) [%] | Kd (human IgG3 [11]) [µM] | Kd (human IgG3 [12]) [µM] | also measured |
| --- | --- | --- | --- | --- | --- | --- | --- |
| B1 | 15 | 31 | 0 | 21 | – | – | – |
| B2 | 1 | 7 | 0 | 2 | – | – | – |
| Ac-AGTYWCTFWELPCDPAPGPEGGGK-NH2 (cysteine pairing not given here, immobilised in batch/column assays) [DX404] | – | – | – | – | – | – | Kd (human IgG1 [5]): 1.5 µM; Kd (human IgG2 [6]): 1 µM; Kd (human IgG1 [7]): 8.8 µM; Kd (human IgG2 [8]): 8.6 µM; Kd (human IgG1 [9]): 2 µM; Kd (human IgG2 [10]): 2 µM |
| B3 | – | – | – | – | 0.84 | 1.1 | – |
| B4 | – | – | – | – | – | – | Static Cap. [13]: 10 mg/mL |
| B5 | – | – | – | – | – | – | Static Cap. [13]: 9 mg/mL |
| B6 | 60 | 86 | 0 | 81 | – | – | binding efficiency (human IgG4 [14]): > 90%; binding efficiency (human IgG1 [15]): > 90%; binding efficiency (human IgG2 [16]): > 90%; bdg % (of Total Load) (human IgG4 [1]): 40%; bdg % (of Total Load) (human IgG1 [2]): 56%; bdg % (of Total Load) (human IgG3 [3]): 15%; bdg % (of Total Load) (human IgG2 [4]): 63% |
| B7 | – | – | – | – | 2.5 | 1.8 | – |
| B8 | – | – | – | – | 0.32 | 0.6 | – |
| B9 | – | – | – | – | – | – | Static Cap. [13]: 11 mg/mL |
| B10 | 71 | 93 | 0 | 90 | – | – | – |
| B11 | 59 | 87 | 0 | 82 | – | – | – |
| B12 | – | – | – | – | 0.02 | 0.04 | Kd (human IgG4 [17]): 1.6 µM; Kd (human IgG1 [5]): 2.4 µM; Kd (human IgG2 [6]): 1.8 µM; Kd (human IgG4 [18]): 3.5 µM; Kd (human IgG1 [7]): 4.6 µM; Kd (human IgG3 [19]): 0.3 µM; Kd (human IgG3 [20]): 0.3 µM |
